How the values were obtained:
[1] = biological target: FVIII mutant M/F 2199/2200 W/W (UniProt P00451)
[2] = biological target: FVIII mutant M/F/L 2199/2200/2252 W/W/S (UniProt P00451)
[3] = biological target: FVIII mutant L/L 2251/2252 L/S (L2252S) (UniProt P00451)
Chain of FVIII mutant L/L 2251/2252 L/S (L2252S) (P00451 20-2351 L2271S): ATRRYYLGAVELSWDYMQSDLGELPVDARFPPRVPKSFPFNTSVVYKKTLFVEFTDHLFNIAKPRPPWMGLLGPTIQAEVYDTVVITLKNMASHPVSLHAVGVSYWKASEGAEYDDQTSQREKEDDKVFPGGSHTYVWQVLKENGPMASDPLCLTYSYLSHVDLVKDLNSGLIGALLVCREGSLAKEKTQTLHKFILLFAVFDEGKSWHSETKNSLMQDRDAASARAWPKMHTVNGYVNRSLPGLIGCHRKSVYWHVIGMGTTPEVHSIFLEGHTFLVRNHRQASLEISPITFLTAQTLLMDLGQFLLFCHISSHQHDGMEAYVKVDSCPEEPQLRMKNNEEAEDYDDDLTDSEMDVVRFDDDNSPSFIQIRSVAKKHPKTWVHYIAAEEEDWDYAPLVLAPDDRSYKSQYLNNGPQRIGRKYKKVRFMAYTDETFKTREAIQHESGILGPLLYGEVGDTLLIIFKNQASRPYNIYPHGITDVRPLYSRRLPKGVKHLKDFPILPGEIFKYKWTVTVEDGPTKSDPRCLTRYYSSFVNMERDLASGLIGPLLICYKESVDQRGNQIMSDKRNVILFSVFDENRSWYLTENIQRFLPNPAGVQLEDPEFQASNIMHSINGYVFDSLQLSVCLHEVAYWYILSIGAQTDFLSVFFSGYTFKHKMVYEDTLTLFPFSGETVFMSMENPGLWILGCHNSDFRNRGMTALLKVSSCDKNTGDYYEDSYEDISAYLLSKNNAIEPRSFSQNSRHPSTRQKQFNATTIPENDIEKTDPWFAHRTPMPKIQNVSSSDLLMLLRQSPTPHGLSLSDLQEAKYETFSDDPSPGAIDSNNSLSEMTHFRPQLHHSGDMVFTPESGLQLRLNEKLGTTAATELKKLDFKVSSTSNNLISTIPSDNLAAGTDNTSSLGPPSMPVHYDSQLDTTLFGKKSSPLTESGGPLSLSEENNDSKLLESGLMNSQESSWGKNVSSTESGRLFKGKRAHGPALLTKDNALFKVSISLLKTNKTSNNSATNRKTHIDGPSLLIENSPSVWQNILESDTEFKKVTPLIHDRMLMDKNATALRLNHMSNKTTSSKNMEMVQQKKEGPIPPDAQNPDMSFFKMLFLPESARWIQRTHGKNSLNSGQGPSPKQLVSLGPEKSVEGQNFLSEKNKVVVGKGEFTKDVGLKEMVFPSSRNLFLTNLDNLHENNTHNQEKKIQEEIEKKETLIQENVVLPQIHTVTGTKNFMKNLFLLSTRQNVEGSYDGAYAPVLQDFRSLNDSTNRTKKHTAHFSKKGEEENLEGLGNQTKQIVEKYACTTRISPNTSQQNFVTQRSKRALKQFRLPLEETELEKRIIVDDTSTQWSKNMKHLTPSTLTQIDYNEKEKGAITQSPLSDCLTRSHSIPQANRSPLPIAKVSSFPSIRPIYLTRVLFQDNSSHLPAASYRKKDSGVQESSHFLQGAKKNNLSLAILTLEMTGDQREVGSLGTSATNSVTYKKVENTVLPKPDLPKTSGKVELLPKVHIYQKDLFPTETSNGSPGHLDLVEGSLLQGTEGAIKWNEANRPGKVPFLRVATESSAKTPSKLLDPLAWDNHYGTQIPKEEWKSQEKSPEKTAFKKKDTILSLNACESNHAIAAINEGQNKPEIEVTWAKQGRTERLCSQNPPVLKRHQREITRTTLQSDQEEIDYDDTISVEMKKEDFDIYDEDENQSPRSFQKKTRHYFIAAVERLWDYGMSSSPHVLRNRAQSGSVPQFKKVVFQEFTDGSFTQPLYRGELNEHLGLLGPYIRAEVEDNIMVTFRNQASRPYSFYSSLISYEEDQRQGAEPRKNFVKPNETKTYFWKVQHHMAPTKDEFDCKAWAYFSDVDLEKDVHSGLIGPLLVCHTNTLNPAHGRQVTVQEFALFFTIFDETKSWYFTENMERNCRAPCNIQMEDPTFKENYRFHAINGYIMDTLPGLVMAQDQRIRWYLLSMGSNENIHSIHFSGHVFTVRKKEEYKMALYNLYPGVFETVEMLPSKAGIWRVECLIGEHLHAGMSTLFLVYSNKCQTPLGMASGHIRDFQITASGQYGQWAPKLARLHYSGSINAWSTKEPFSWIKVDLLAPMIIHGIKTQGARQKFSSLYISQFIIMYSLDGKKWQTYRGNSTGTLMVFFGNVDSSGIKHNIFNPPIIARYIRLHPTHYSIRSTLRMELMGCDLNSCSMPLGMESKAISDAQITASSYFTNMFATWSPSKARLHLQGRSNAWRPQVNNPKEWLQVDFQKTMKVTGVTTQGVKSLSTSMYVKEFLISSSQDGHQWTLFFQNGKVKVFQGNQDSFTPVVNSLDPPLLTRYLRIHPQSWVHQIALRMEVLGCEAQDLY

Chain of FVIII mutant M/F 2199/2200 W/W (P00451 other isoform, or with tags, fused parts or gaps mutant): as the sequence (P00451 20-2351 L2271S) above, with M2199W, F2200W, S2252L counted along it
Chain of FVIII mutant M/F/L 2199/2200/2252 W/W/S (P00451 other isoform, or with tags, fused parts or gaps mutant): as the sequence (P00451 20-2351 L2271S) above, with M2199W, F2200W counted along it

Question: With factor IXa as the substance, how does the “apparent affinity for factor IXa, Xase assay with 15% PS vesicles” value (“apparent affinity … with 15% PS vesicles” below) [1] read?
Answer: the apparent affinity for factor IXa was reduced 5-fold

Question: What about the “apparent affinity of factor IXa, Xase assay with saturating PL, 1000 µM” value (from here on “apparent affinity of factor IXa”) [1] of the same substance?
Answer: the apparent affinity of factor IXa for the mutants was decreased approximately 4-fold for the three mutants

Question: And the “apparent affinity … with 15% PS vesicles” value [2]?
Answer: the apparent affinity for factor IXa was reduced 5-fold

Question: What about the “apparent affinity of factor IXa” value [2] of the same substance?
Answer: the apparent affinity of factor IXa for the mutants was decreased approximately 4-fold for the three mutants

Question: And the “apparent affinity … with 15% PS vesicles” value [3]?
Answer: the apparent affinity for factor IXa was reduced 5-fold

Question: What about the “apparent affinity of factor IXa” value [3] of the same substance?
Answer: the apparent affinity of factor IXa for the mutants was decreased approximately 4-fold for the three mutants

Source: US20120190623
